Here are results for 1 substance from article PMC5379950.

This experiment deals with microtubules (MTs) assembled with taxol in M-phase Xenopus egg extract (Xenopus laevis (endogenous in egg extract)). As to the kind of experiment: co-sedimentation.

“GFP-xINCENP 7A (from UniProt O13024 1-873) (natural protein)” showed a fold increase in MT binding (against xINCENP) of 2 fold.
